Source: US20120244563A1

What was measured:
Test in all cases: ELISA; coated glycoprotein, biotin-labeled lectin 1 µg/mL; grade of A450 reaction value (Low 0.1 to 0.2, Moderate 0.2 to 0.5, High 0.5 or more)
[1] = target: α-Fetoprotein L3 (Homo sapiens (Human)) (UniProt P02771)
[2] = target: Prostate-specific antigen (Homo sapiens (Human)) (UniProt P07288)
[3] = target: α-Fetoprotein (Homo sapiens (Human)) (UniProt P02771)
Immunoglobulin G = target: Immunoglobulin G
α2-Macroglobulin = target: α2-Macroglobulin
Immunoglobulin M = target: Immunoglobulin M
Immunoglobulin A = target: Immunoglobulin A

α-Fetoprotein L3 (Homo sapiens (Human)), sequence (P02771 19-609 limits assumed, form in doubt): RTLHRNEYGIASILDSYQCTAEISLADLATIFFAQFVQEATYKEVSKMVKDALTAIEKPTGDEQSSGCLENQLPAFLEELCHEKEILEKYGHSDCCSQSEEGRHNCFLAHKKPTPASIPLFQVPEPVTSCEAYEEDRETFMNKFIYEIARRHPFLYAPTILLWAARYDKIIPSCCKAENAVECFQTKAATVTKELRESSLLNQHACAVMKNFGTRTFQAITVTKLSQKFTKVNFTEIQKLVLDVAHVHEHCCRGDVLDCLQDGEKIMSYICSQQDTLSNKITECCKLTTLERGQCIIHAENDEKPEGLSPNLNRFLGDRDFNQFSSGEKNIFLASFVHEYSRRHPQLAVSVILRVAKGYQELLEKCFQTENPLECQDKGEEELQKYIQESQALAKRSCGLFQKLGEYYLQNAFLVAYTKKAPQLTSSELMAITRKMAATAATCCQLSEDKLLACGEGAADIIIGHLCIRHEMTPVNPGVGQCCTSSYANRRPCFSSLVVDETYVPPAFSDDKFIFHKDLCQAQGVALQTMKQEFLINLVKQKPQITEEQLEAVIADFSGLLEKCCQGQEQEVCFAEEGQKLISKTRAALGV
Prostate-specific antigen (Homo sapiens (Human)), sequence (P07288 25-261 limits assumed, form in doubt): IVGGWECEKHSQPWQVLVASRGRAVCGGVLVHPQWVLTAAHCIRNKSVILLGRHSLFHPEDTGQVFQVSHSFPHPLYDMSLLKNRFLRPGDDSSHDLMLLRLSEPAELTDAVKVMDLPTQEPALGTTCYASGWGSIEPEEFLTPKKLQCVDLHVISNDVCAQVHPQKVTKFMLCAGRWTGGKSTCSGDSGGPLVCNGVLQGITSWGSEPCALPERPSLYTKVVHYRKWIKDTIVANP
α-Fetoprotein (Homo sapiens (Human)), sequence (P02771 19-609 limits assumed, form in doubt): as the sequence (P02771 19-609 limits assumed, form in doubt) above
α2-Macroglobulin, sequence (P01023 24-1474): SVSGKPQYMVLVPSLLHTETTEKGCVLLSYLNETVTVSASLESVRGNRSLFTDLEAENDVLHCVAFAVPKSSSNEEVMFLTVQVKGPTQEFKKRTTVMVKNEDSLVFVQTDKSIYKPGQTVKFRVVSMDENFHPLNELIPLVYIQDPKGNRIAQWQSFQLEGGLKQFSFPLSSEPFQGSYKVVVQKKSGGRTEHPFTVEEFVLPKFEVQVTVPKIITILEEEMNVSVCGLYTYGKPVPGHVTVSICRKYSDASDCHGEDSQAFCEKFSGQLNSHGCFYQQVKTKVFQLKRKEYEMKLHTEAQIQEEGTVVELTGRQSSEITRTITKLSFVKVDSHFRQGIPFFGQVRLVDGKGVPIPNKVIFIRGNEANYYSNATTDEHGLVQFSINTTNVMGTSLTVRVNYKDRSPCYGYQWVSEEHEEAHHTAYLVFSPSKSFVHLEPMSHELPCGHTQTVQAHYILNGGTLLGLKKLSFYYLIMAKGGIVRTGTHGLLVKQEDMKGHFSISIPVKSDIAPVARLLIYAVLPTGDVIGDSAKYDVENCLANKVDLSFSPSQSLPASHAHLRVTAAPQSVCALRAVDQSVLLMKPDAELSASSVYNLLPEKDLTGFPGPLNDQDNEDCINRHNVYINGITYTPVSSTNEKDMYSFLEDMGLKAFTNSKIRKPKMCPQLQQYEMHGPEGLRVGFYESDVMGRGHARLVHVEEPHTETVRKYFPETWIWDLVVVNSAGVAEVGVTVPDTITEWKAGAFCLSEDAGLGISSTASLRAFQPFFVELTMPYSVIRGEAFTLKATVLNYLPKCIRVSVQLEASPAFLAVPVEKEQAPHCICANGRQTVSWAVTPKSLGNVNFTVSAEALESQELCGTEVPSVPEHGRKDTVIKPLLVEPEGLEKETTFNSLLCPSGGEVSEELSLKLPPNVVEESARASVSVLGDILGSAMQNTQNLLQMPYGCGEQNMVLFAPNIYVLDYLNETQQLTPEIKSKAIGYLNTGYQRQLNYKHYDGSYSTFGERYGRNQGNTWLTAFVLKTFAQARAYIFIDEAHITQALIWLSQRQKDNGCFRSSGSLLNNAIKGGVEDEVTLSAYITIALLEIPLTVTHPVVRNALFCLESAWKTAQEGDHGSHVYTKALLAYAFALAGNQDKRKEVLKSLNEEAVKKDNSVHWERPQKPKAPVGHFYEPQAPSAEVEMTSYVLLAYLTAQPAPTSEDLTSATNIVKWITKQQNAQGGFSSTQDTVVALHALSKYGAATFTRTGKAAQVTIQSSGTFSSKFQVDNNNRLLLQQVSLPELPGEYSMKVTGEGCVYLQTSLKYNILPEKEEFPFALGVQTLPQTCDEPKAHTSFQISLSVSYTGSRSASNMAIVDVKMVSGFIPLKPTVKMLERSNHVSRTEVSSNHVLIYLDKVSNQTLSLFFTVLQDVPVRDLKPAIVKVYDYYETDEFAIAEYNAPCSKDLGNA

reaction value (absorbance at 450 nm minus blank) [1] [od] | reaction value (absorbance at 450 nm minus blank) [2] [od] | reaction value (absorbance at 450 nm minus blank) [3] [od] | reaction value (absorbance at 450 nm minus blank) (Immunoglobulin G) [od] | reaction value (absorbance at 450 nm minus blank) (α2-Macroglobulin) [od] | reaction value (absorbance at 450 nm minus blank) (Immunoglobulin M) [od] | reaction value (absorbance at 450 nm minus blank) (Immunoglobulin A) [od] | Substance
> 0.5 | 0.2 to 0.5 | 0.2 to 0.5 |  |  |  |  | Aleuria aurantia lectin (from UniProt P18891 2-313)
> 0.5 |  |  |  |  |  |  | Lens culinaris lectin (from UniProt P02870 31-210; P02870 218-269)
> 0.5 | > 0.5 |  | 0.1 to 0.2 | 0.2 to 0.5 | 0.1 to 0.2 | 0.2 to 0.5 | Pholiota terrestris Overholts lectin
